# B1: Treponema denticola ComFB (natural protein)
# chain: MIIHNVMEDLVYTEVNKLFDEAEEKKESWLTCSCMQCRVDTMCYVLNRVKPRYIKSGRGLAHFLKFEKTEKVQIMADITSLVIEGMHRVLSTKRPHDHEPIFETENTPVFNFPAITGNILNGSNFRPMEDATISLKMNGELVSQMSILWDNPYTISEKTPGAYTFCPKAIPAKNAGDKEKFIFVLKAEKEGFDPTNFSFDIELTAEDMVKSPLDSSNFYQIKNLFLCEHSEEE
# Molecular target: the molecule itself
# Assay: SEC-MALS
protein,measurement,value
B1,stoichiometry N,2

# From article PMC11581024 (bioRxiv, 2024)
